Test results reported in patent US20190015484A1, “NICOTINE-DEGRADING ENZYMES FOR TREATING NICOTINE ADDICTION AND NICOTINE POISONING” (priority 2015, published 2019).
Where “and” joins values, the source holds several entries; their conditions need not be identical. Identical values can stand only once. Entries after “also recorded” stand apart in the source; their conditions may differ.

Key:
[1] = In vivo testing of NicA2: blood and brain nicotine levels in rats; parameters: species or system rat
Method: Rats were used for in vivo testing because their nicotine metabolism is generally similar to that of humans with regard to rate and range of metabolites. 30 female, 250 g Sprague Dawley rats were pretreated with varying amounts of NicA2 intravenously as noted in Table B below.
After administration of NicA2 (generally over 5 minutes), nicotine (0.03 mg/kg) was administered intravenously. At 5 minutes, the rats were sacrificed under isoflurane anesthesia and 1 ml blood samples were collected with 0.32 ml heparin. 0.5 ml of each blood sample was added to a tube containing ice cold 2 ml methanol (to quench NicA2 activity) and the contents were rapidly mixed. Another 0.5 ml of each blood sample was added to a tube containing ice cold 2 ml of methanol (to quench NicA2 activity) and deuterium labeled D4-nicotine, and the contents were rapidly mixed. The brains were collected and frozen at −20° C. Measurements were made in accordance with Keyler et al., International Pharmacology 2008, 8, […], and, Hieda et al., Psychopharmacology, 1999, 143(2), 150-157.

[2] = NicA2 Michaelis-Menten assay (LC-MS); format: biochemical
Method: NicA2 activity was determined by LC-MS using Agilent 1260 Infinity liquid chromatography system with 6130 quadrupole mass spectrometry. 20 μl of each sample was injected to a Poroshell 120 EC-C8 column (4.6×50 mm, 2.7 μm, Agilent Technologies) subjected to a gradient (A to B where A=0.1% formic acid in water and B=0.1% formic acid in acetonitrile) of 0% B for 3 min, 0% B to 100% B from 3 to 7 min, and 100% B from 7 to 10 min at a constant flow rate of 0.5 ml/min. A column-solvent equilibration time of 3 min was conducted prior to next sample analysis. MS operational parameters were: API-ES mode, channel 1 (90%) positive single ion monitoring (SIM) of m/z 179 (30%), 161 (30%), 166 (30%) and 163 (10%), corresponding to the M+ peak of the reaction products, labeled internal standard and substrate respectively and channel 2 (10%) scan for positive ions; nitrogen as a nebulizing and drying gas (35 psi, 12 L/min), HV capillary voltage at 4 kV and the drying gas temperature to 300° C. To protect the detector from salts in the buffer, MS was turned on with a delay 1.4 min after injection.
Nicotine was solubilized in ddH2O to a concentration of 10 mM as stock and diluted with HEPES buffer (50 mM, pH=7.4) in the assay. Then 100 μL nicotine solution was mixed with 100 μL NicA2 solution to obtain final concentrations of 0.0625, 0.125, 0.25, 0.5, 1, 2 […] and 10 nM NicA2. After incubating at room temperature for 20 min, 20 μL nicotine methyl D-3 (2 μM in 20% TFA/H2O) solution was added to the mixture as an internal standard and to quench the reaction as well. The samples were injected into the LC-MS for analysis.
For standard curve generation, 0.03125, 0.0625, 0.125, 0.25, 0.5, 1, 2 μM nicotine and 0.4 μM NicA2 was tested and incubated for 2 h for complete oxidation of nicotine.
For the assay at 37° C., all the operations were undertaken in a warm room (37° C.) and solutions were pre-warmed to 37° C. Subsequently protocols were followed as described, vide supra.
Raw data was obtained with Agilent ChemStation, ions with m/z 179,161 (products), 166 (internal standard), 163 (nicotine) were extracted from MS channel 1 (SIM). The area of each peak was integrated and divided by internal standard (IS).
Data was further analyzed with Prism 6.0. For standard curves, the ratios of products to IS were plotted against concentrations of converted nicotine and fitted with linear regression. For experiment data, the ratios were fitted to the standard curves to obtain converted nicotine concentration, and then divided by reaction time (20 min) to get v0. These v0 were plotted against substrate nicotine concentrations using he Michaelis-Menten model to obtain Km and Vmax.
Upon reaction of nicotine with NicA2, three products were observed by LC-MS, one with m/z 179 (4) and two inseparable nicotine metabolites with m/z 161 (1 and 2, FIG. 2). Due to the limitation of instrument sensitivity and the dynamic equilibration of the products, direct quantification of the enzyme's efficiency was challenging. To compensate for these shortcomings, the product peaks 1, 2 and 4 were integrated in order to back-calculate the amount of nicotine consumed by NicA2. Standard curves were generated wherein nicotine was fully oxidized by NicA2 and the m/z 161/179 signals were plotted against a change in nicotine concentration, to provide a direct linear relationship (FIG. 3). The kinetic parameters of the enzyme were thus accurately determined.
To determine kinetic parameters of the enzyme, curves were generated at varying nicotine concentrations utilizing 10 nM NicA2 at room temperature. Samples were analyzed by LC-MS using nicotine (methyl-D3) as an internal standard. Target m/z values (161, 179 and 166) were extracted, integrated and fit to obtain the velocity, v0.

[3] = Temperature curve of NicA2; format: biochemical; conditions: HEPES buffer, 20-95° C.
Method: 100 μL of each solution was mixed, incubated, quenched and then analyzed as detailed, vide supra.
The effect of higher temperatures on the enzyme's stability was also examined.

[4] = NicA2 co-factor assay (FAD or FMN); format: biochemical; conditions: 40 μM FMN or FAD, room temperature
Method: An FAD or FMN stock solution was added to nicotine HEPES solution to obtain 80 μM FAD or FMN mixed with 4 μM nicotine. 100 μL each sample was mixed with
100 μL 40 nM NicA2 and incubated at room temperature for 20 min. An additional sample without FAD or FMN was prepared at the same time as the control. The samples were analyzed as described above.

B1: NicA2: flavin-containing nicotine-degrading enzyme of Pseudomonas putida S16, amino acid sequence SEQ ID NO:1 (protein)
chain: MSDKTKTNEGFSRRSFIGSAAVVTAGVAGLGAIDAASATQKTNRASTVKGGFDYDVVVVGGGFAGATAARECGLQGYRTLLLEARSRLGGRTFTSRFAGQEIEFGGAWVHWLQPHVWAEMQRYGLGVVEDPLTNLDKTLIMYNDGSVESISPDEFGKNIRIAFEKLCHDAWEVFPRPHEPMFTERARELDKSSVLDRIKTLGLSRLQQAQINSYMALYAGETTDKFGLPGVLKLFACGGWNYDAFMDTETHYRIQGGTIGLINAMLTDSGAEVRMSVPVTAVEQVNGGVKIKTDDDEIITAGVVVMTVPLNTYKHIGFTPALSKGKQRFIKEGQLSKGAKLYVHVKQNLGRVFAFADEQQPLNWVQTHDYSDELGTILSITIARKETIDVNDRDAVTREVQKMFPGVEVLGTAAYDWTADPFSLGAWAAYGVGQLSRLKDLQAAEGRILFAGAETSNGWHANIDGAVESGLRAGREVKQLLS
modifications: His tag
- brain nicotine levels ([1]; 4 out of the 5 animals, 5 min after 0.03 mg/kg i.v. nicotine): < 2 ng/mL
- blood and brain levels of nicotine ([1]; rats, 5 minutes after 0.03 mg/kg i.v. nicotine, n=5): below the limit of quantitation
- reduction in nicotine blood levels ([1]; rats, highest NicA2 dose (9.72 mg/kg i.v.), 5 min after 0.03 mg/kg i.v. nicotine, compared to controls): > 95%
- specificity constant [2]: approximately 10^5 M^−1s^−1
- Km ([2]; 37° C.): 0.092 µM and 0.0919 µM
- kcat ([2]; 37° C.): (1.32±0.04)×10^−2 s^−1
- kcat ([2]; room temperature, m/z 161): (7.02 ± 0.23) × 10^−3 s^−1
- Km ([2]; room temperature, m/z 161, 10 nM NicA2): 0.0462 ± 0.0064 µM
- kcat ([2]; room temperature, m/z 179): (6.64 ± 0.17) × 10^−3 s^−1
- Km ([2]; room temperature, m/z 179, 10 nM NicA2): 0.043 µM and 0.0435 µM
- optimum temperature [3]: 70 °C
- effect of added FMN or FAD on NicA2 activity [4]: no change in NicA2 activity; also recorded: did not affect the activity
